Measured values taken from doi:10.1101/2021.03.25.436948.

Target: Drosophila melanogaster GNPTAB homolog, luminal portion (residues 50-630) (Drosophila melanogaster)
Test: cryo-EM structure

Drosophila melanogaster GNPTAB homolog, luminal portion (residues 50-630) (domain or fragment)
stoichiometry N: 2
